Test results from patent US20210309981, “VARIANT TYPE V CRISPR/CAS EFFECTOR POLYPEPTIDES AND METHODS OF USE THEREOF” (The Regents of the University of California, published 2021).

Target: T1, dCasX (D672A-E769A-D935A) (Deltaproteobacteria, D672A,E769A,D935A)
T1 chain: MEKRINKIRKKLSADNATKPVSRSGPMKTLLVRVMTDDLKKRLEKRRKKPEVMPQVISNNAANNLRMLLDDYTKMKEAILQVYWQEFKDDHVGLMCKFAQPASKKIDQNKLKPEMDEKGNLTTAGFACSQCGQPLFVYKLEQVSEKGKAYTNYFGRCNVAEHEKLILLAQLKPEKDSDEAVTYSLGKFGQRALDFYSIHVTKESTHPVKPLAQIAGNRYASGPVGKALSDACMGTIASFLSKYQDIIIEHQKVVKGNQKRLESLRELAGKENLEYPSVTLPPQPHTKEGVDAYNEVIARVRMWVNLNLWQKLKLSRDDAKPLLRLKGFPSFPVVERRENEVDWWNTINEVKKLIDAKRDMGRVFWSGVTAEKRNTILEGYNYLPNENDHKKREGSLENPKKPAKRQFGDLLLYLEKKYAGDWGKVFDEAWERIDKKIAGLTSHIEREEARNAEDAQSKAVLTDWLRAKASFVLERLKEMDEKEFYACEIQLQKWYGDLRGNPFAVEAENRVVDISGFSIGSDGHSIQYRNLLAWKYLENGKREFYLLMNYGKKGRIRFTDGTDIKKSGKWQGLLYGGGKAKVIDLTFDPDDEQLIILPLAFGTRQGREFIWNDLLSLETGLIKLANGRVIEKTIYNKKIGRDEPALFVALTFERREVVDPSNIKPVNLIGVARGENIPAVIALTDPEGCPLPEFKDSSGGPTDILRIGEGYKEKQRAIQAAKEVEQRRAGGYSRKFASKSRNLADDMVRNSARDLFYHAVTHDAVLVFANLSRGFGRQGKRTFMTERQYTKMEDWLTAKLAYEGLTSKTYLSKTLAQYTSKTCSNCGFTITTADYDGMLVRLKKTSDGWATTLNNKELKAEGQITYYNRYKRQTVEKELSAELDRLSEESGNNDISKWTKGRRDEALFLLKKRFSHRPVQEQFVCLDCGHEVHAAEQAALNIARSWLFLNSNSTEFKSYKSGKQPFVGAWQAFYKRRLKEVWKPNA
Assay: structure; binary CasX-gRNA complex by SEC and cryo-EM; wild-type vs triple mutant not explicitly stated
Settings: tags: 2CT-10 vector; tag removed by TEV

B1: CasX sgRNA (in vitro transcribed; listed sequence is the DNA transcription template) (ssRNA)
RNA: GGCGCGUUUAUUCCAUUACUUUGGAGCCAGUCCCAGCGACUAUGUCGUAUGGACGAAGCGCUUAUUUAUCGGAGAGAAACCGAUAAGUAAAACGCAUCAAAGUCCUGCAGCAGAAAAUCAAA
binding result: binds
